According to the nanobody polyreactivity screen of Harvey et al. (2022):

Experiment: yeast display, Sf9 membrane polyspecificity reagent, FACS + sequencing; frameworks hold sequencing errors
Procedure, shortened: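 Synthetic nanobody libraries on Saccharomyces cerevisiae BJ5465 were galactose-induced for 36–48 hours, stained 1 hour at 4 °C with 10% biotinylated, detergent-solubilized Sf9 membrane reagent and enriched on streptavidin microbeads. FACS then separated cells into low and high (top ~1%) gates by anti-HA (expression) and streptavidin (reagent binding) fluorescence. Genes were colony-PCR amplified, MiSeq 2 × 250 sequenced and CDR-length filtered. A clone's polyreactivity label is that of its gate of origin.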

| Sequence | polyreactivity (PSR sort gate) |
| --- | --- |
| QVQLGESGGGLVQAGGSLRLSCAASGYIFRIYAMGGYRQAPGKERELVAAISRSGGSTSYADSVKGRFTISRDTAKNTVYLQMNSLKPEDTAVYYCATEIRPSRIAQYDYWGQGTQVTVSS | high polyreactivity |
| QVQLVESGGGLVQAGGSLRLSCAASGSIFSNYDMGWYRQAPGKERELVAGITRSGTNTYYADSVKGRFTISRDNAKNTVYLKMNRLKPEDTAVYYCAAAIRPGMDYWGQGTQVTVSS | high polyreactivity |
| QVQLVDSGGGLVQAGGSLRLTCAASGSTIYWYAMGWYRQAPGKERELVAAISSSGSTKYADSVKGRFTISRDNAKNNVYLQINSLKPEDTAVYYCAADVEYDRDVPQQVYVSDDYWGQGTKVTVSS | low polyreactivity |
| QVQLVESGGGLVQAGGSLRLSCAATGITFQPYTMGWYRQAPGKERELVASISIRGSRTYYADSVKGRFTISRDNAKNTVYLQMNSLKPEDTAVYYCNAPYNHVWAHSYWYDYWGQGTQVTVSS | high polyreactivity |
| QVQLVESGGGLVQAGGSLRLSCAASGRTFDYYVMGWYRQAPGKERELVAAISTSGGRTYYADSVKGRFTISRDNAKNTVYLQMNSLKPEDTAVYYCAAYWGGWSFRYLYDYWGQGTQVTVSS | high polyreactivity |
| QVQLVESGGGLVQAGGSHRLSCAASGFTFTHYPMGWYRQAPGKERELVAAISTSGGSTYYADSVKGRFTISRDNAKNSVYLQMNSLKPEDTAVYYCAARRDGWVQWGYYYWGQGTQVTVSS | low polyreactivity |
| QVQLVESGGGLVQAGGSLRLSCAASGSTFYYYAMGWYRQAPGKEREFVAAITFRGGSTYYADSVKGRFTISRDNAKNTVYLQMNSLKPEDTAVYYCAAKPPFRNYVRYDYWGQGTQVTVSS | high polyreactivity |
| QVQLVESGGGLVQAGGSLRLSSAASGRTFHSYARGWYRQSPGKERELVAGMSWGGTRTTYADSVKGRFTLSRDNAKNTVYLQMNSLKPEDTADYYCNAVYYALGRSPPDYGYWGQGTQVTVSS | low polyreactivity |
| QVQLVESGGGLDQAGGSLRLSCAASGSTFDYYARGWYRQAPGKERELVAAISSSGGSTYYADSVKGRFTISRDNANYTVYLQRNSLKPEDTAVYYCNKYGGTLRSDYWGQGTQVTVSS | high polyreactivity |
| QVQLVESGGGLVQAGGSLRLSCAASGRIFTYNAMGWYRQAPGKERELVAASSRRGGTTYYADSVKGRFTISRDIAKITVYLQMNSLKPEDTAVYYCAARGQYRYSFGDYSWGQGTQVTVSS | high polyreactivity |
| QVQLVESCGGLVQAGGSLRLSCADSGRTFYKYAMGWYRPAPVKERELVAAITSGGGRTYYADSVKGRFTISRDNAKNTVYLQMNSLKPEDTAVYYCNAVLPLAKYEYDSWGQGTQVTVSS | high polyreactivity |
| QVQLVESGGGLVQAGGSLRLSCAASGFISRNAMGWYRQAPGKERELVAAITRGGSTNYADSVKGRFTISRDNAKNTVYLQMNRLKPEDTAVYYCNKQRQGNSRSYYQTYYGMYYWGQGTQVTVSS | high polyreactivity |
| QVQLVESGGGLVQAGGSLRLSCAASGSTFVLYAMGWYRQAPGKERELVATISSGGSTYYADSVKGRFTISRDNAKNTVYLQMNRLKPEDTAVYYCAASYSRFVDWIGDPGYDYWGQGTQVTVSS | low polyreactivity |
| QVQLVESGGGLVQAGGSLRLSCAASGSIFYVYAMGWSRQAPGKERELVASITRRRTNYADSVKGRFTISRDTAKNTVYLQMNSLKPEDTAVYYCAATTYVRQYATYDYWGQGTQVTVSS | high polyreactivity |
| QVQLVESGGGLVQAGGSLRLSCAASGSIFLSYDMGWYRQAPGKERELVAAITQSGGSTYYADSVKGRFTISRDNAKNTVYLQINSLIPEDTAVYYCAADYGYLPQETYPTYGYYYWGQGTQVTVSS | low polyreactivity |
| QVQLVESGGGLVQAGGSLRLSCAASGRIFYPYVMGWYRQAPGKERELVAAISDTTGSTYYADSVKGRFTISRDNAKNTVYLQMNSLKPEDTEVFYCAAGWFYATYWRFYYWGQGTQVTVSS | low polyreactivity |
| QVQLVESAGGLVQAGGSLRLSCAASGNTFHSNALGWYRQAPGKERELVAAITPSDGDTYYADSVKGRFTISRDNAKNTVYLQMNSLKPEDTAVYYCAAEDDPGEYEYWGQGTQVTESS | low polyreactivity |
| QAQLVESGGGLVQAGGRLRLICAASGSIFAGYAMGWSRQAPGKERELVATITSSSRTNYADSVKGRFSISRDNAKNNVYLQMNILKPEETAVSYCAARGRSVIDVYRMYYWGQGTKVTVSS | high polyreactivity |
| QVQLVESGGGLVQGGGSLRLSCAASGRTFYGYAMGWYRQAPGKERELVAAITRSGGSTYYADSVKGRFTISRDNAKKTVYLQMNILKPVDTAVYYCAAGGQARHDYWGQGTQVTVSS | low polyreactivity |
| QVQLVESGGGLVQAGGSLRLSCAASGRTFWRYTMGWYRQAPGKERELVAAISTNAGTTYYADSVKGRFTISRDNAKNTVYLQMNSLKPEDTAVYYCAARHPGNGYADPTNYYWGQGTQVTVSS | high polyreactivity |
| QVHFVESGGGLVQAGGSLSLSCAASGLTFSYYAMGWYRQAPGKERELVARISNSGGCTYYADSVKGRFTISRDNAKITVYLQMNSLKPEDTAVYYCAALHTSLHRNKYEYWGQGTQVTVSS | high polyreactivity |
| QVQLVDSGGGLVQAGGSLRLSCDATGRIFRLYAMGWYRQAPGKERELVAAISWRGSSTNYADSVKGRFTISRDNAKNTVYLQRNSLKPEDTAVYYCAAPGRGGYYYWGQGTQVTVSS | high polyreactivity |

| Sequence | polyreactivity (PSR sort gate) |
| --- | --- |
| QVQLVESGGGLVQAGGSLRLSCAASGSIFDSNNMVWYRQAPGKERELVAGISTGGSTNYADSVKGRFTISRDNAKNTVYLQMNSLKPEDTAVYYCNADLGSSYDWGQGTQVTVSS | low polyreactivity |
| QVQLVESGGGLVQAGGSLRLSCAASGRTFGVYAMGCYRQAPGKERELVAGIRWRGGSTYYADSVKGRFTNSRDNAKNTVYLQMNSLKPEDTAVYYCAADVYLVKYDYWGQGTQVTVSS | low polyreactivity |
| QVQLVESGGGLVQAGGSLRLSCAASGFTLYYYTMGWYRQAPGKERELVAAITSGGDTYYADSVKGRFTISRDNAKNTVYLQMNSLKPEDTAVYYCAAVDDDYSIVWYDYWGQGTQVTVSS | low polyreactivity |
| HVQLVESGGGLVQAGGSLRLSCAASGRIFNDYSMGWYRQAPGKERELVAAIRRRGDRTYYADSVKGRFTISRDNAKNTVYLQMNSLKPEDTAVYYCAKSQSAKGGYDYWGQGTQVTVSS | high polyreactivity |
| QVQLVESGGGLVQAGGSLRLSCAASGIILHYYAMGWYRQAPGKERELVAAISARGGRTYYADSVKGRFTISRDNANNTVYLQMNSLKPEDTAVYYCAAVTVASPTRMDYWGQGTQVTVSS | high polyreactivity |
| QVQLVESGGVLVEAGGSLRLSCASSGRIFTYYSMGWYRQAPGKERELVAAISRSGRTYYADSVKGRFTISRDNAKNTVYLQMNSLKPEDSAVYFCAAEYYYSWFEYWGQGTQVTVSS | high polyreactivity |
| QVQLVESGGGIVQAGGSLRLSCAASGRIIRYYTMGWYRQAPGKERELVAAIRQRGGSTYYADSVKGRFTISRDNAKNTVYLHMNSLKREDTAVYYCNAVRRTTYDYWGQGTQVTVSS | high polyreactivity |
| QVQLVESGGGLVHAGGRLRLSFAASGSIFAVYAMGWYRQAPGKEREFVARIAWGGGRTYYADSVKGRFTISRDNAQNTVYLQMNSLKPEDTAVYYCNAERAGTYRYDYWGQGPQVTVSS | high polyreactivity |
| QVQLVESGGGLVQAGGSLRLSCAASGSTFKSYTMGWYRPAPGKERELVAAISGSGGRTYYADSVKGRFTISRDNAKNTVYLQMNSLKPEDTAVYYCAATGPYGFYWGQGTQVTVSS | high polyreactivity |
| QVQLVESGGGLVQAGGSLRLSCAASGYTFNPYVMGWYSQAPGKERELVAAISSGGSTSYADSVKGRFTISRDNAKNTVYLQMNSLKPEDTAVYYCAADWSYYYSRNYESDYWGQGTQVTVSS | low polyreactivity |
| QDQLVESGGGLVQAGGSLSLSCAASGRTFAVYAMGWYRQAPGKEMELVAAITQSGGSTYYADSVKGRFTISRDNAKNTVYLQINSMKPEDTAVYYCAKTGRFPYTAGQSFGYDYWGQGTQVTVSS | low polyreactivity |
| QVQLVESGGGLVQAGGSLRVSWAACGSTFYGYGMGWYRQAPWKERELVAAITGSGDTTYYADSVKGRFTISRDNAKNTVYLQMNSLKPEDTAVYYCAADASSKLYEYWGQGTQVTVSS | low polyreactivity |
| QVQLVESGGGLVQAGGSLRLSCAASGRTFHVYARGWYRQAPGKERELVAAISGRTGSTYYADSVKGRFTISRDNAKNTVYLQMNSLKPEDTAVYYCAARRWSHGTGYGSWGQGTQVTVSS | high polyreactivity |
| QVQLVESGGGLVQAGGSLRLSCAASGLIFTSYPMGWDRQAPGKERELVAAIDTSGGSTYYADSVKGRFTISRDNAKNTVYLQMNSLKPEDTAVYYCAATSTYRSYLEYDYWGQGTQVTVSS | low polyreactivity |
| QVQLVESGGGLVQAGGSLRLSCAASGRIFRDYAMGWYRQAPGKERELVAAIRSVGNTNYADSVKGRFTISRDNAKNTVYLQMNSLKPEDTAVYYCNRQGSYFSRQAIGDFRFDYWGQGTQVTVSS | low polyreactivity |
| QVQLVESGGGLVQAGGSLRLICAASALIFGAYTMGWYIQAPGKERELVAAIRRSGSTYYPDSVKGRFTISRDNAKNTVYLQMNSLKPEDTAVYYGNARIGPGRYTYYRSGYDYWGQGTQVTVSS | high polyreactivity |
| QVQLVESGGGLVQAGGSLRLSCAASGSTFGYYAMGWYRQAPGKERELVAVITRGGSTYYADSVKGRFTISRDNAKNTVYLQMNSLKQEDTAVYYCNARVLAVHYGYWGQGTQVTVSS | high polyreactivity |
| QVQLVESGGGLVQAGGSLRLSCAASGSTFYGYGMGWYREAPGKERELVAAITGSGDTTYYADSVKGRFTISRDNAKNTVYLQMNSLKREDTAVYYCNAGWHAEYDYWGQGTQVTVSS | low polyreactivity |
| HVQLVESGGGLVQAGGSLRLSCAASGLIFDWYAMGWYRQAPGKERELVADISYSGGSTNYADSVKGRFTISRDNAKNTVYLQMNSLKPEDTAVYYCAVDYYYPTLTIGYYYWGQGTQVTVSS | low polyreactivity |
| QVQLVESGGGLVQAGGSLRLSCAASGNIFLTYAMGWYRQAPGKERELVAAISRGGRTYYADSVKGRFTISRDNAKNTVYLQMNRLKPEDTAVYYCNVQPDRISRYDYWGQGTQVTVSS | high polyreactivity |
| QVQLVESGGRLVQAGGSLRLSCAASGRTFYRYAMGWYRQAPGKERELVAAITWSGGSTYYADSVKGRFTTSRDNAKNTVYLQMNSLKPEDTAVYYCAATKRRFVKFDYWGQGTQVTVSS | low polyreactivity |
